Data published in patent publication US20090170766A1, “Chimeric Kunitz Domains and their Use” (BAYER HEALTHCARE AG, priority 2006, published 2009).
Where two headings read alike, the source gives them in different places. Positions of bridges follow the written chain, without caps; N, C: chain ends. No end group written: not given here.

What was measured:
human plasmin [1] = biological target: T1, human plasmin (Homo sapiens, UniProt P00747); experiment: Inhibition of plasmin, fluorogenic substrate assay; format: biochemical
T1 construct: enzymatic activities of trypsin, plasmin and plasma kallikrein; purchased Enzyme Research Hplas
T1 sequence (P00747 581-810 limits assumed): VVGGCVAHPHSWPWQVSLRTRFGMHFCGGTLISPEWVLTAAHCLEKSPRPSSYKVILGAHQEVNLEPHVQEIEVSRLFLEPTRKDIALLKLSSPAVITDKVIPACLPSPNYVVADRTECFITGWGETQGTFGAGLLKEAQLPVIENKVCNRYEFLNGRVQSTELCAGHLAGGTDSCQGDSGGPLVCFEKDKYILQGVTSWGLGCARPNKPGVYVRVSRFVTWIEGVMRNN
T1 sequence (P00747 97-580 partner limits assumed): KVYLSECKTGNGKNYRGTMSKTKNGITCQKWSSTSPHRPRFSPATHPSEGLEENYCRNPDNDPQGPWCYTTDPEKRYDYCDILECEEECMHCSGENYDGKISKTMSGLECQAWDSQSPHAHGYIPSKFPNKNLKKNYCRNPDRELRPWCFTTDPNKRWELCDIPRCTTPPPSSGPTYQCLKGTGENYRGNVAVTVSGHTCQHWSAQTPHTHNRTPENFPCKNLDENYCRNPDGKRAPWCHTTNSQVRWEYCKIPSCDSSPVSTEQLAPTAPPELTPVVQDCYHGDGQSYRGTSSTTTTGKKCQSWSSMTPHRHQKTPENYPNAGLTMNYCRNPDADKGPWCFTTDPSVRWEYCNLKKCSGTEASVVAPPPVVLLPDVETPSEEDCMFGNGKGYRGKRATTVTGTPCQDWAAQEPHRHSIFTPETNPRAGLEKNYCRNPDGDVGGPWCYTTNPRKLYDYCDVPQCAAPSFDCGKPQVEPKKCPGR
Description: (§1) The inhibitory potency of TFPI mut3 on the enzymatic activities of trypsin, plasmin and plasma kallikrein were determined with the aid of fluorogenic substrates in biochemical assays in white 384-well microtitre plates. The assay buffer was composed of 50 mM Tris/Cl, pH 7.4, 100 mM NaCl, 5 mM CaCl2, 0.08% (w/v) BSA. The assay conditions were specifically as follows:
(§2) 10 μl of a serial dilution of TFPI mut3EA were introduced into each well and preincubated with 20 μl of enzyme at RT for 5 min. The reaction was then started by adding 20 μl of substrate to each. The measurement took place after 60-90 min in a Tecan reader with an excitation wavelength of 360 nm and an emission wavelength of 465 nm. Dose-activity plots and half-maximum inhibitory constants (IC50 values) were determined using GraphPad Prism software (version 4.02).

human plasma kallikrein [2] = biological target: T2, human plasma kallikrein (Homo sapiens, UniProt P03952); experiment: Inhibition of plasma kallikrein, fluorogenic substrate assay; format: biochemical
T2 construct: purchased Calbiochem 420307
T2 sequence (P03952 391-638 limits assumed): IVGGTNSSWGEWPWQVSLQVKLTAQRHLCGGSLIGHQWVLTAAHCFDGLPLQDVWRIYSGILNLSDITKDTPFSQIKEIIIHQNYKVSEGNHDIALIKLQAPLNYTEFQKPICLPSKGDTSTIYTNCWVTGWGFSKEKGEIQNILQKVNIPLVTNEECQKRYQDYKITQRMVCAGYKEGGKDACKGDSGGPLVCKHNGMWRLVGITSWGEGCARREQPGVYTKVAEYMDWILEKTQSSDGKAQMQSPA
T2 sequence (P03952 20-390 partner limits assumed): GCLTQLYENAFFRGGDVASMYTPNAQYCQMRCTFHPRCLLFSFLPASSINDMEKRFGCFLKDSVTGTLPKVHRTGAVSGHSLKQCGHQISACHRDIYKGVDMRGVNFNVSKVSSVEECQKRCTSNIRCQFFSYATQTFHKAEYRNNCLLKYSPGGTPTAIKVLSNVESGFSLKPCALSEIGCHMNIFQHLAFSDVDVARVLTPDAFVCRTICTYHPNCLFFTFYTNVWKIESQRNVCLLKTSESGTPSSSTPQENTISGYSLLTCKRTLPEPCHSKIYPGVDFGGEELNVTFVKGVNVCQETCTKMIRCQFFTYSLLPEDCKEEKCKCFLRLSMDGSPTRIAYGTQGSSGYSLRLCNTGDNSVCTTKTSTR
Description: as §1, §2

human trypsin [3] = experiment: Inhibition of trypsin, fluorogenic substrate assay; format: biochemical
Description: as §1, §2

human trypsin [4] = biological target: T3, human trypsin (human, UniProt P07477)
human plasmin [5] = biological target: T4, human plasmin (human, UniProt P00747)
Target sequence in this assay (P00747 97-810 limits assumed): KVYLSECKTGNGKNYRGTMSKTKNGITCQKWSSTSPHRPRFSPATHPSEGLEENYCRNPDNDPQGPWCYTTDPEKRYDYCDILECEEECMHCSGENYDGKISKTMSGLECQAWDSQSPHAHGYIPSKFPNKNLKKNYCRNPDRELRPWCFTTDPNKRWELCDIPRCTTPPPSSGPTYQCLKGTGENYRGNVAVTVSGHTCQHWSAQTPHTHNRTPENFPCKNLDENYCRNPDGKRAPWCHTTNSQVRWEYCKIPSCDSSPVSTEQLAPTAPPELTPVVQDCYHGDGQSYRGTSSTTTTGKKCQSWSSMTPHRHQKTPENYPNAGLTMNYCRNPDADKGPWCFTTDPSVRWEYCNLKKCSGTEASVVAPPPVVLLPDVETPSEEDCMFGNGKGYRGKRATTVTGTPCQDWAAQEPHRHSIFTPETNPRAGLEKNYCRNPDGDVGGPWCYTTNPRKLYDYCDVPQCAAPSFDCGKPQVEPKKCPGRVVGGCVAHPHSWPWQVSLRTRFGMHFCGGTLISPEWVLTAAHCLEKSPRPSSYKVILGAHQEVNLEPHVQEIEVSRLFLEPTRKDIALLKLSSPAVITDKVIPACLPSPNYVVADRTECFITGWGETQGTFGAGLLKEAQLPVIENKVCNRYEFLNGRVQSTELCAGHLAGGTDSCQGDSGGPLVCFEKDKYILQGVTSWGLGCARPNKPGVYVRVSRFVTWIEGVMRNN

human plasma kallikrein [6] = biological target: T5, human plasma kallikrein (human, UniProt P03952)
human trypsin [7] = biological target: T3, human trypsin; experiment: cell-based or functional assay
human plasmin [8] = biological target: T4, human plasmin; experiment: cell-based or functional assay
human plasma kallikrein [9] = biological target: T5, human plasma kallikrein; experiment: cell-based or functional assay

EAMHSFCAFKAYTGPCKARIIRFFFNIFTRQCEEFIYGGCEGNQNRFESLEECKKMCTRD (disulfide 7-57, 16-40, 32-53) [SEQ ID NO: 25]
IC50 (human plasmin [1]): 52 nM
IC50 (human plasma kallikrein [2]): 1.19 nM

MHSFCAFKADDGPCKAIMKRFFFNIFTRQCEEFIYGGCEGNQNRFESLEECKKMCTRD (disulfide 5-55, 14-38, 30-51) [hTFPI D1, reference compound]
IC50 (human plasma kallikrein [2]): > 10 nM

MHSFCAFKADDGPCRAAMKRFFFNIFTRQCEEFIYGGCEGNQNRFESLEECKKMCTRD (disulfide 5-55, 14-38, 30-51) [SEQ ID NO: 7]
IC50 (human plasmin [1]): 195 nM
IC50 (human plasma kallikrein [2]): 11 nM

MHSFCAFKADDGPCKAIMKRFWFNIFTRQCEEFIYGGCEGNQNRFESLEECKKMCTRD (disulfide 5-55, 14-38, 30-51) [SEQ ID NO: 9]
IC50 (human plasmin [1]): 497 nM
IC50 (human plasma kallikrein [2]): > 10 nM

EAMHSFCAFKAYTGPCKAAIIRFFFNIFTRQCEEFIYGGCEGNQNRFESLEECKKMCTRD (disulfide 7-57, 16-40, 32-53) [SEQ ID NO: 26]
IC50 (human plasmin [1]): 83 nM
IC50 (human plasma kallikrein [2]): 194 nM

MHSFCAFKAETGPCRAAHPRWFFNIFTRQCEEFIYGGCEGNQNRFESLEECKKMCTRD (disulfide 5-55, 14-38, 30-51) [SEQ ID NO: 4]
IC50 (human plasmin [1]): 32 nM
IC50 (human plasma kallikrein [2]): 3 nM

EAMHSFCAFKAYTGPCRAAIIRFFFNIFTRQCEEFIYGGCEGNQNRFESLEECKKMCTRD (disulfide 7-57, 16-40, 32-53) [SEQ ID NO: 28]
IC50 (human plasmin [1]): 77 nM
IC50 (human plasma kallikrein [2]): 8 nM

EAMHSFCAFKAVTGPCRASFPRWFFNIFTRQCEEFIYGGCEGNQNRFESLEECKKMCTRD (disulfide 7-57, 16-40, 32-53) [SEQ ID NO: 29]
IC50 (human plasmin [1]): 19 nM
IC50 (human plasma kallikrein [2]): 16 nM

EAMHSFCAFKAETGPCRAAHPRWFFNIFTRQCEEFIYGGCEGNQNRFESLEECKKMCTRD (disulfide 7-57, 16-40, 32-53) [SEQ ID NO: 19]
IC50 (human plasmin [1]): 30 nM
IC50 (human plasma kallikrein [2]): 3 nM

EAMHSFCAFKAVTGPCRAAMKRFWFNIFTRQCEEFIYGGCEGNQNRFESLEECKKMCTRD (disulfide 7-57, 16-40, 32-53) [SEQ ID NO: 31]
IC50 (human plasmin [1]): 48 nM
IC50 (human plasma kallikrein [2]): 75 nM

MHSFCAFKADDGPCRAAHPRWWFNIFTRQCEEFIYGGCEGNQNRFESLEECKKMCTRD (disulfide 5-55, 14-38, 30-51) [SEQ ID NO: 8]
IC50 (human plasmin [1]): 267 nM
IC50 (human plasma kallikrein [2]): 1 nM

MHSFCAFKAETGPCRAAMKRFFFNIFTRQCEEFIYGGCEGNQNRFESLEECKKMCTRD (disulfide 5-55, 14-38, 30-51) [SEQ ID NO: 10]
IC50 (human plasmin [1]): 27 nM
IC50 (human plasma kallikrein [2]): 48 nM

EAMHSFCAFKAETGPCRAAHPRWWFNIFTRQCEEFIYGGCEGNQNRFESLEECKKMCTRD (disulfide 7-57, 16-40, 32-53) [SEQ ID NO: 20]
IC50 (human plasmin [1]): 24 nM
IC50 (human plasma kallikrein [2]): 2 nM

SEQ ID NO: 5: hTFPI D1 variant: MSSFCAFKAETGPCRAAHPRWWFNIFTRQCEEFIYGGCEGNQNRFESLEECKKMCTRD
IC50 (human trypsin [3]): 8 nM
IC50 (human plasmin [1]; human plasmin, read-out: Plasmin IC50): 24 nM
IC50 (human plasma kallikrein [2]; human plasma kallikrein, read-out: Plasma kallikrein IC50): 3 nM

EAMHSFCAFKAVTGPCKARIIRFFFNIFTRQCEEFIYGGCEGNQNRFESLEECKKMCTRD (disulfide 7-57, 16-40, 32-53) [SEQ ID NO: 18]
IC50 (human plasmin [1]): 47 nM
IC50 (human plasma kallikrein [2]): 1.48 nM

EAMHSFCAFKASTGPCKARIIRFFFNIFTRQCEEFIYGGCEGNQNRFESLEECKKMCTRD (disulfide 7-57, 16-40, 32-53) [SEQ ID NO: 30]
IC50 (human plasmin [1]): 56 nM
IC50 (human plasma kallikrein [2]): 2.34 nM

B1: TFPI mut4 (SEQ ID NO: 5) (designed binder)
chain: MHSFCAFKAETGPCRAAHPRWWFNIFTRQCEEFIYGGCEGNQNRFESLEECKKMCTRD
Trypsin IC50 [nM], inhibition of enzymatic activity, fluorogenic substrate (human trypsin [4]): 8 nM
Plasmin IC50 [nM], inhibition of enzymatic activity, fluorogenic substrate (human plasmin [5]): 24 nM
Plasma kallikrein IC50 [nM], inhibition of enzymatic activity, fluorogenic substrate (human plasma kallikrein [6]): 3 nM

B2: TFPI mut2 (SEQ ID NO: 7) (designed binder)
chain: MHSFCAFKADDGPCRAAMKRFFFNIFTRQCEEFIYGGCEGNQNRFESLEECKKMCTRD
Trypsin IC50 [nM], inhibition of enzymatic activity, fluorogenic substrate (human trypsin [4]): 19 nM
Plasmin IC50 [nM], inhibition of enzymatic activity, fluorogenic substrate (human plasmin [5]): 195 nM
Plasma kallikrein IC50 [nM], inhibition of enzymatic activity, fluorogenic substrate (human plasma kallikrein [6]): 11 nM

B3: TFPI mut3 (SEQ ID NO: 4) (designed binder)
chain: MHSFCAFKAETGPCRAAHPRWFFNIFTRQCEEFIYGGCEGNQNRFESLEECKKMCTRD
Trypsin IC50 [nM], inhibition of enzymatic activity, fluorogenic substrate (human trypsin [4]): 5 nM
Plasmin IC50 [nM], inhibition of enzymatic activity, fluorogenic substrate (human plasmin [5]): 32 nM
Plasma kallikrein IC50 [nM], inhibition of enzymatic activity, fluorogenic substrate (human plasma kallikrein [6]): 3 nM

B4: TFPI mut6 (SEQ ID NO: 9) (designed binder)
chain: MHSFCAFKADDGPCKAIMKRFWFNIFTRQCEEFIYGGCEGNQNRFESLEECKKMCTRD
Trypsin IC50 [nM], inhibition of enzymatic activity, fluorogenic substrate (human trypsin [4]): 36 nM
Plasmin IC50 [nM], inhibition of enzymatic activity, fluorogenic substrate (human plasmin [5]): 497 nM
Plasma kallikrein IC50 [nM], inhibition of enzymatic activity, fluorogenic substrate (human plasma kallikrein [6]): > 10000 nM

B5: TFPI random (SEQ ID NO: 10) (designed binder)
chain: MHSFCAFKAETGPCRAAMKRFFFNIFTRQCEEFIYGGCEGNQNRFESLEECKKMCTRD
Trypsin IC50 [nM], inhibition of enzymatic activity, fluorogenic substrate (human trypsin [4]): 6 nM
Plasmin IC50 [nM], inhibition of enzymatic activity, fluorogenic substrate (human plasmin [5]): 27 nM
Plasma kallikrein IC50 [nM], inhibition of enzymatic activity, fluorogenic substrate (human plasma kallikrein [6]): 48 nM

B6: TFPI mut5 (SEQ ID NO: 8) (designed binder)
chain: MHSFCAFKADDGPCRAAHPRWWFNIFTRQCEEFIYGGCEGNQNRFESLEECKKMCTRD
Trypsin IC50 [nM], inhibition of enzymatic activity, fluorogenic substrate (human trypsin [4]): 266 nM
Plasmin IC50 [nM], inhibition of enzymatic activity, fluorogenic substrate (human plasmin [5]): 267 nM
Plasma kallikrein IC50 [nM], inhibition of enzymatic activity, fluorogenic substrate (human plasma kallikrein [6]): 1 nM

B7: TFPI mut13EA (SEQ ID NO: 18) (designed binder)
chain: EAMHSFCAFKAVTGPCKARIIRFFFNIFTRQCEEFIYGGCEGNQNRFESLEECKKMCTRD
Trypsin IC50 [nM], inhibition of enzymatic activity, fluorogenic substrate (human trypsin [4]): 20 nM
Plasmin IC50 [nM], inhibition of enzymatic activity, fluorogenic substrate (human plasmin [5]): 47 nM
Plasma kallikrein IC50 [nM], inhibition of enzymatic activity, fluorogenic substrate (human plasma kallikrein [6]): 1480 nM

B8: TFPI mut4EA (SEQ ID NO: 20) (designed binder)
chain: EAMHSFCAFKAETGPCRAAHPRWWFNIFTRQCEEFIYGGCEGNQNRFESLEECKKMCTRD
Trypsin IC50 [nM], inhibition of enzymatic activity, fluorogenic substrate (human trypsin [4]): 7 nM
Plasmin IC50 [nM], inhibition of enzymatic activity, fluorogenic substrate (human plasmin [5]): 24 nM
Plasma kallikrein IC50 [nM], inhibition of enzymatic activity, fluorogenic substrate (human plasma kallikrein [6]): 2 nM

B9: TFPI mut10EA (SEQ ID NO: 28) (designed binder)
chain: EAMHSFCAFKAYTGPCRAAIIRFFFNIFTRQCEEFIYGGCEGNQNRFESLEECKKMCTRD
Trypsin IC50 [nM], inhibition of enzymatic activity, fluorogenic substrate (human trypsin [4]): 17 nM
Plasmin IC50 [nM], inhibition of enzymatic activity, fluorogenic substrate (human plasmin [5]): 77 nM
Plasma kallikrein IC50 [nM], inhibition of enzymatic activity, fluorogenic substrate (human plasma kallikrein [6]): 8 nM

B10: TFPI mut8EA (SEQ ID NO: 26) (designed binder)
chain: EAMHSFCAFKAYTGPCKAAIIRFFFNIFTRQCEEFIYGGCEGNQNRFESLEECKKMCTRD
Trypsin IC50 [nM], inhibition of enzymatic activity, fluorogenic substrate (human trypsin [4]): 64 nM
Plasmin IC50 [nM], inhibition of enzymatic activity, fluorogenic substrate (human plasmin [5]): 83 nM
Plasma kallikrein IC50 [nM], inhibition of enzymatic activity, fluorogenic substrate (human plasma kallikrein [6]): 194 nM

B11: TFPI mut12EA (SEQ ID NO: 30) (designed binder)
chain: EAMHSFCAFKASTGPCKARIIRFFFNIFTRQCEEFIYGGCEGNQNRFESLEECKKMCTRD
Trypsin IC50 [nM], inhibition of enzymatic activity, fluorogenic substrate (human trypsin [4]): 21 nM
Plasmin IC50 [nM], inhibition of enzymatic activity, fluorogenic substrate (human plasmin [5]): 56 nM
Plasma kallikrein IC50 [nM], inhibition of enzymatic activity, fluorogenic substrate (human plasma kallikrein [6]): 2340 nM

B12: TFPI mut15EA (SEQ ID NO: 31) (designed binder)
chain: EAMHSFCAFKAVTGPCRAAMKRFWFNIFTRQCEEFIYGGCEGNQNRFESLEECKKMCTRD
Trypsin IC50 [nM], inhibition of enzymatic activity, fluorogenic substrate (human trypsin [4]): 1 nM
Plasmin IC50 [nM], inhibition of enzymatic activity, fluorogenic substrate (human plasmin [5]): 48 nM
Plasma kallikrein IC50 [nM], inhibition of enzymatic activity, fluorogenic substrate (human plasma kallikrein [6]): 75 nM

B13: TFPI mut11EA (SEQ ID NO: 29) (designed binder)
chain: EAMHSFCAFKAVTGPCRASFPRWFFNIFTRQCEEFIYGGCEGNQNRFESLEECKKMCTRD
Trypsin IC50 [nM], inhibition of enzymatic activity, fluorogenic substrate (human trypsin [4]): 4 nM
Plasmin IC50 [nM], inhibition of enzymatic activity, fluorogenic substrate (human plasmin [5]): 19 nM
Plasma kallikrein IC50 [nM], inhibition of enzymatic activity, fluorogenic substrate (human plasma kallikrein [6]): 16 nM

B14: TFPI mut3EA (SEQ ID NO: 19) (designed binder)
chain: EAMHSFCAFKAETGPCRAAHPRWFFNIFTRQCEEFIYGGCEGNQNRFESLEECKKMCTRD
modifications: ends and bridges not checked; cysteine pairing not given here
Trypsin IC50 [nM], inhibition of enzymatic activity, fluorogenic substrate (human trypsin [4]): 5 nM
Plasmin IC50 [nM], inhibition of enzymatic activity, fluorogenic substrate (human plasmin [5]): 30 nM
Plasma kallikrein IC50 [nM], inhibition of enzymatic activity, fluorogenic substrate (human plasma kallikrein [6]): 3 nM

B15: TFPI mut7EA (SEQ ID NO: 25) (designed binder)
chain: EAMHSFCAFKAYTGPCKARIIRFFFNIFTRQCEEFIYGGCEGNQNRFESLEECKKMCTRD
Trypsin IC50 [nM], inhibition of enzymatic activity, fluorogenic substrate (human trypsin [4]): 38 nM
Plasmin IC50 [nM], inhibition of enzymatic activity, fluorogenic substrate (human plasmin [5]): 52 nM
Plasma kallikrein IC50 [nM], inhibition of enzymatic activity, fluorogenic substrate (human plasma kallikrein [6]): 1190 nM

B16: human tissue factor pathway inhibitor 1 Kunitz domain 1 (hTFPI D1) (other)
chain: MHSFCAFKADDGPCKAIMKRFFFNIFTRQCEEFIYGGCEGNQNRFESLEECKKMCTRD
Trypsin IC50 [nM], inhibition of enzymatic activity, fluorogenic substrate (human trypsin [7]): 44 nM
Plasmin IC50 [nM], inhibition of enzymatic activity, fluorogenic substrate (human plasmin [8]): 559 nM
Plasma kallikrein IC50 [nM], inhibition of enzymatic activity, fluorogenic substrate (human plasma kallikrein [9]): > 10000 nM
